Patent publication US8206955B2, “Production of monatin and monatin precursors” (Cargill, Incorporated, priority 2003, dated 2012)

Assay: tryptophan aminotransferase activity, production of indole-pyruvic acid
Format: biochemical
Settings: for tryptophan aminotransferase activity (in words): recombinant clones expressed in E. coli
Description: Cell extracts were analyzed by SDS-PAGE, and assayed for tryptophan aminotransferase activity by following production of indole-pyruvic acid using the following protocol. One mL reactions were carried out in 50 mM sodium tetraborate (pH 8.5), 0.5 mM EDTA, 0.5 mM sodium arsenate, 50 μM pyridoxal phosphate, 5 mM α-ketoglutarate, and 5 mM L-tryptophan. The reactions were initiated by the addition of cell free extracts or purified enzyme and were incubated 30 minutes at 30° C. 20% TCA (200 μL) was added to stop the reaction, and the precipitated protein was removed by centrifugation. The absorbance at 327 nm was measured and compared to a standard curve of freshly prepared indole-3-pyruvate in the assay buffer. Control reactions without the substrate tryptophan or using cell-free extracts from clones transformed with pET30a alone were also performed.
Due to background from the native E. coli aminotransferases in cell extracts, the recombinant fusion proteins each containing an aminotransferase protein fused to the pET30 amino terminal HIS6-Tag/S-Tag (6×HIS tag disclosed as SEQ ID NO: 90) were purified using immobilized metal affinity chromatography with His-Bind cartridges following manufacturer's protocols (Novagen, Madison, Wis.). The HIS6-Tag sequence (SEQ ID NO: 90) of the fusion proteins binds to the divalent Ni^2+ cations immobilized on IDA-based His-Bind resin. The eluent fractions were desalted on PD-10 (Amersham Biosciences, Piscataway, N.J.) columns and eluted in 50 mM Tris, pH 7.0. Purified proteins were analyzed by SDS-PAGE and assayed for aminotransferase activity.
Table 1 lists the specific activities measured in micrograms of indole-3-pyruvate (I3P) formed per milligram protein per minute. […] In these cases a ‘>’ precedes the specific activity number.

[1] = purified (P), 5 mM L-tryptophan, 30 minutes at 30° C.
[2] = cell extracts (CE), 5 mM L-tryptophan, 30 minutes at 30° C.

Molecule	Specific Activity [1]	tryptophan aminotransferase activity (in words)	Specific Activity [2]	Specific Activity (commercial enzyme (Sigma))
E. coli aspC: Escherichia coli aspartate aminotransferase (aspC) (protein, UniProt P00509 1-396, looked up) Aspartate aminotransferase: MFENITAAPADPILGLADLFRADERPGKINLGIGVYKDETGKTPVLTSVKKAEQYLLENETTKNYLGIDGIPEFGRCTQELLFGKGSALINDKRARTAQTPGGTGALRVAADFLAKNTSVKRVWVSNPSWPNHKSVFNSAGLEVREYAYYDAENHTLDFDALINSLNEAQAGDVVLFHGCCHNPTGIDPTLEQWQTLAQLSVEKGWLPLFDFAYQGFARGLEEDAEGLRAFAAMHKELIVASSYSKNFGLYNERVGACTLVAADSETVDRAFSQMKAAIRANYSNPPAHGASVVATILSNDALRAIWEQELTDMRQRIQRMRQLFVNTLQEKGANRDFSFIIKQNGMFSFSGLTKEQVLRLREEFGVYAVASGRVNVAGMTPDNMAPLCEAIVAVL	800 μg I3P/mg protein/min	significant levels of tryptophan aminotransferase activity		
R. sphaeroides 35053 msa: R. sphaeroides 35053 multiple substrate aminotransferase (SEQ ID NOS: 13 and 14) (protein, R. sphaeroides) MREPLALEIDPGHGGPLFLAIAEAITLDITRGRLRPGARLPGTRALARALGVHRNTVDAAYQELLTQGWLQAEPARGTFVAQDLPQGMLVHRPAPAPVEPVAMRAGLAFSDGAPDPELVPDKALARAFRRALLSPAFRAGADYGDARGTSSLREALAAYLASDRGVVADPARLLIARGSQMALFLVARAALAPGEAIAVEEPGYPLAWEAFRAAGAEVRGVPVDGGGLRIDALEAALARDPRIRAVYVTPHHQYPTTVTMGAARRLQLLELAERHRLALIEDDYDHEYRFEGRPVLPLAARAPEGLPLIYVGSLSKLLSPGIRLGYALAPERLLTRMAAARAAIDRQGDAPLEAALAELIRDGDLGRHARKARRVYRARRDLLAERLTAQLAGRAAFDLPAGGLALWLRCAGVSAETWAEAAGQAGLALLPGTRFALESPAPQAFRLGYAALDEGQIARAVEILARSFPG	0 μg I3P/mg protein/min		3.97 μg I3P/mg protein/min	
B. subtilis araT: Bacillus subtilis aromatic aminotransferase (araT, SEQ ID NOS: 9 and 10) (protein, listed as Bacillus subtilis) MEHLLNPKAREIEISGIRKFSNLVAQHEDVISLTIGQPDFFTPHHVKAAAKKAIDENVTSYTPNAGYLELRQAVQLYMKKKADFNYDAESEIIITTGASQAIDAAFRTILSPGDEVIMPGPIYPGYEPIINLCGAKPVIVDTTSHGFKLTARLIEDALTPNTKCVVLPYPSNPTGVTLSEEELKSIAALLKGRNVFVLSDEIYSELTYDRPHYSIATYLRDQTIVINGLSKSHSMTGWRIGFLFAPKDIAKHILKVHQYNVSCASSISQKAALEAVTNGFDDALIMREQYKKRLDYVYDRLVSMGLDVVKPSGAFYIFPSIKSFGMTSFDFSMALLEDAGVALVPGSSFSTYGEGYVRLSFACSMDTLREGLDRLELFVLKKREAMQTINNGV	1.5–4.5 μg I3P/mg protein/min	little enzymatic activity	0 μg I3P/mg protein/min	
L. amylovorus araT: Lactobacillus amylovorus aromatic aminotransferase (araT, SEQ ID NOS: 11 and 12), novel (protein, listed as Lactobacillus amylovorus) MPELANDLGLSKKITDVKASGIRIFDNKVSAIPGIIKLTLGEPDMNTPEHVKQAAIKNIADNDSHYAPQKGKLELRKAISKYLKKITGIEYDPETEIVVTVGATEAINATLFAITNPGDKVAIPTPVFSLYWPVATLADADYVLMNTAEDGFKLTPKKLEETIKENPTIKAVILNYPTNPTGVEYSEDEIKALAKVIKDNHLYVITDEIYSTLTYGVKHFSIASLIPERAIYISGLSKSHAMTGYRLGYVAGPAKIMAEIGKVHGLMVTTTTDSSQAAAIEALEHGLDDPEKYREVYEKRRDYVLKELAEIEMQAVKPEGAFYIFAKIPAKYGKDDMKFALDLAFKEKVGITPGSAFGPGGEGHIRLSYASSDENLHEAMKRMKKVLQEDE	0 μg I3P/mg protein/min		1.26 μg I3P/mg protein/min	
R. sphaeroides 2.4.1 tatA: Rhodobacter sphaeroides strain 2.4.1 tyrosine aminotransferase (SEQ ID NOS: 3 and 4) (protein, Rhodobacter sphaeroides) MRSTTAPGPSGACMTISRSRKDDEGMLTALKPQPADKILQLIQMFREDARADKIDLGVGVYKDPTGLTPVMRAVKAAEKRLWEVETTKTYTGLADEPAYNAAMAKLILAGAVPADRVASVATPGGTGAVRQALELIRMASPEATVWISNPTWPNHLSIVKYLGIPMREYRYFDAETGAVDAEGMMEDLAQVKAGDVVLLHGCCHNPTGANPNPVQWLAICESLARTGAVPLIDLAYQGFGDGLEMDAAATRLLATRLPEVLIAASCSKNFGIYRERTGILIAIGEAAGRGTVQANLNFLNRQNYSFPPDHGARLVTMILEDETLSADWKAELEEVRLNMLTLRRQLADALQAETGSNRFGFVAEHRGMFSRLGITPAEVERLRTEHGVYMVGDSRLNIAGLNRTTVPVLARAVAKVLRG	1086 μg I3P/mg protein/min		>41.2 μg I3P/mg protein/min	
R. sphaeroides 35053 tatA: R. sphaeroides 35053 tyrosine aminotransferase (SEQ ID NOS: 5 and 6) (protein, Rhodobacter sphaeroides) MRSTTAPGPSGACMTISRSRKDDEGMLTALKPQPADKILQLIQMFREDARADKIDLGVGVYKDPTGLTPVMRAVKAAEKRLWEVETTKTYTGLAGEPAYNAAMAKLILAGAVPADRVASVATPGGTGAVRQALELIRMASPEATVWISNPTWPNHLSIVKYLGIPMREYRYFDAETGAVDAEGLMEDLAQVKAGDVVLLHGCCHNPTGANPNPVQWLAVCESLARTGAVPLIDLAYQGFGDGLEMDAAATRLLATRLPEVLIAASCSKNFGIYRERTGILIAIGEAAGRGTVQANLNFLNRQNYSFPPDHGARLVTMILEDETLSADWKAELEEVRLNMLTLRRQLADALQAETGSNRFGFVAEHRGMFSRLGITPAEVERLRTEHGVYMVGDSRLNIAGLNRTTVPVLARAVAKVLRG	>486 μg I3P/mg protein/min		>62.3 μg I3P/mg protein/min	
Porcine type II-A: Glutamic-oxaloacetic transaminase from pig heart (type IIa), Sigma G7005 (protein, UniProt P00503 2-413, looked up) Aspartate aminotransferase, …: APPSVFAEVPQAQPVLVFKLIADFREDPDPRKVNLGVGAYRTDDCQPWVLPVVRKVEQRIANDSSLNHEYLPILGLAEFRTCASRLALGDDSPALQEKRVGGVQSLGGTGALRIGAEFLARWYNGTNNKDTPVYVSSPTWENHNGVFTTAGFKDIRSYRYWDTEKRGLDLQGFLSDLENAPEFSIFVLHACAHNPTGTDPTPEQWKQIASVMKRRFLFPFFDSAYQGFASGNLEKDAWAIRYFVSEGFELFCAQSFSKNFGLYNERVGNLTVVAKEPDSILRVLSQMEKIVRVTWSNPPAQGARIVARTLSDPELFHEWTGNVKTMADRILSMRSELRARLEALKTPGTWNHITDQIGMFSFTGLNPKQVEYLINEKHIYLLPSGRINMCGLTTKNLDYVATSIHEAVTKIQ				1.5 μg I3P/mg protein/min
Porcine type I: commercial porcine glutamate-oxaloacetate aminotransferase, Sigma G2751 (protein, UniProt P00503 2-413, looked up) Aspartate aminotransferase, …: APPSVFAEVPQAQPVLVFKLIADFREDPDPRKVNLGVGAYRTDDCQPWVLPVVRKVEQRIANDSSLNHEYLPILGLAEFRTCASRLALGDDSPALQEKRVGGVQSLGGTGALRIGAEFLARWYNGTNNKDTPVYVSSPTWENHNGVFTTAGFKDIRSYRYWDTEKRGLDLQGFLSDLENAPEFSIFVLHACAHNPTGTDPTPEQWKQIASVMKRRFLFPFFDSAYQGFASGNLEKDAWAIRYFVSEGFELFCAQSFSKNFGLYNERVGNLTVVAKEPDSILRVLSQMEKIVRVTWSNPPAQGARIVARTLSDPELFHEWTGNVKTMADRILSMRSELRARLEALKTPGTWNHITDQIGMFSFTGLNPKQVEYLINEKHIYLLPSGRINMCGLTTKNLDYVATSIHEAVTKIQ				1 μg I3P/mg protein/min
E. coli tyrB: E. coli tyrosine aminotransferase (tyrB, SEQ ID NOS: 31 and 32) (protein, E. coli) VFQKVDAYAGDPILTLMERFKEDPRSDKVNLSIGLYYNEDGIIPQLQAVAEAEARLNAQPHGASLYLPMEGLNCYRHAIAPLLFGADHPVLKQQRVATIQTLGGSGALKVGADFLKRYFPESGVWVSDPTWENRVAIFAGAGFEVSTYPWYDEATNGVRFNDLLATLKTLPARSIVLLHPCCHNPTGADLTNDQWDAVIEILKARELIPFLDIAYQGFGAGMEEDAYAIRAIASAGLPALVSNSFSKIFSLYGERVGGLSVMCEDAEAAGRVLGQLKATVRRNYSSPPNFGAQVVAAVLNDEALKASWLAEVEEMRTRILAMRQELVKVLSTEMPERNFDYLLNQRGMFSYTGLSAAQVDRLREEFGVYLIASGRMCVAGLNTANVQRVAKAFAAVM	1 μg I3P/mg protein/min			
